Experimental findings from the supplement of paper PMC7877785 are described below.

± gives the uncertainty stated by the source.

This data set is described as follows: self-splicing fitness, log relative to wild type (ln ratio); higher = more splicing; Tetrahymena group I intron in knt gene, E. coli kanamycin selection, DiMSum; sequences stand for … in CUCUCU…GGAGGGAAAAGUUAUCAGGCAUGCACCUGGUAGCUAGUCUUUAAACCAAUAGAUUGCAUCGGUUUAAAAGGCAAGACCGUCAAAUUGCGGGAAAGGGGUCAACAGCCGUUCAGUACCAAGUCUCAGGGGAAACUUUGAGAUGGCCUUGCAAAGGGUAUGGUAAUAAGCUGACGGACAUGGUCCUAACCACGCAGCCAAGUCCUAAGUCAACAGAUCUUCUGUUGAUAUGGAUGCAGUUCACAGACUAAAUGUCGGUCGGGGAAGAUGUAUUCUUCUCAUAAGAUAUAGUCGGACCUCUCCUUAAUGGGAGCUAGCGGAUGAAGUGAUGCAACACUGGAGCCGCUGGGAACUAAUUUGUAUGCGAAAGUAUAUUGAUUAGUUUUGGAGUACUCGUGGUCG
Put shortly:
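Library with all eight P1ex-region intron nucleotides randomised, intron inside the knt kanamycin-resistance gene on pET-22b(+), in E. coli BL21(DE3). Cells grew overnight at 37°C or 30°C on LB agar with or without 25 μg/mL kanamycin (plus 100 μg/mL carbenicillin, 50 μM IPTG, 0.2% rhamnose), in six replicate transformations. Pooled colonies were amplicon-sequenced on Illumina HiSeq 2500. DiMSum fitness is the error-weighted combination of wild-type-normalised replicate fold changes, kanamycin versus none.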

Turning to GUACAGCAAUAUUACGAACU, the “self-splicing fitness (ln)” value runs as follows: (30 °C) -0.664 ± 0.15; (37 °C) -1.24 ± 0.2. Taken in the same sequence, the figures for GAGAAGCAAUAUUACGGGCC were -2.03 ± 0.22 and -2.56 ± 0.41. Consider AUCGAGCAAUAUUACGCCUU, for which the “self-splicing fitness (ln)” value is, setting by setting: (30 °C) -1.74 ± 0.16; (37 °C) -1.72 ± 0.21. On to UUAAAGCAAUAUUACGCCGG, for which the “self-splicing fitness (ln)” value was -0.245 ± 0.12 (30 °C) and 0.421 ± 0.18 (37 °C). As to AGAUAGCAAUAUUACGACAG, the “self-splicing fitness (ln)” value (30 °C) was -2.26 ± 0.15 and the “self-splicing fitness (ln)” value (37 °C) was -0.465 ± 0.18.

Regarding AGAUAGCAAUAUUACGCAAA, the “self-splicing fitness (ln)” value is -2.81 ± 0.23 (30 °C) and -1.75 ± 0.24 (37 °C). Take AAACAGCAAUAUUACGUCGU: the “self-splicing fitness (ln)” value runs as follows: (30 °C) -2.13 ± 0.071; (37 °C) -0.661 ± 0.071. For CUCAAGCAAUAUUACGAGCA, where the note is “37 °C”, the “self-splicing fitness (ln)” value was -2.49 ± 0.33. Consider CUCGAGCAAUAUUACGCGUA, for which the “self-splicing fitness (ln)” value was -2.97 ± 0.48 (30 °C) and -1.59 ± 0.23 (37 °C).

Consider CGCGAGCAAUAUUACGACAA, for which the “self-splicing fitness (ln)” value (30 °C) is -2.72 ± 0.34 and the “self-splicing fitness (ln)” value (37 °C) is -2.28 ± 0.33. Regarding GAGAAGCAAUAUUACGUUGU, the “self-splicing fitness (ln)” value is, setting by setting: (30 °C) -3.19 ± 0.19; (37 °C) -3.31 ± 0.32. On the same counts, the results for ACAUAGCAAUAUUACGGGUU are -2.41 ± 0.08 and -1.77 ± 0.11. As for AGAAAGCAAUAUUACGAUUU, the “self-splicing fitness (ln)” value reads like this: (30 °C) -0.00992 ± 0.078; (37 °C) 0.286 ± 0.11. With AACUAGCAAUAUUACGAUAA, the “self-splicing fitness (ln)” value (30 °C) was -1.41 ± 0.099 and the “self-splicing fitness (ln)” value (37 °C) was -0.94 ± 0.099. On the same counts, the results for AAGAAGCAAUAUUACGCAGC are -3.17 ± 0.38 and -2.12 ± 0.22. As to AAGAAGCAAUAUUACGGCUA, the “self-splicing fitness (ln)” value by setting is: (30 °C) -0.552 ± 0.077; (37 °C) -0.0286 ± 0.1. Taken in the same sequence, the figures for CGGUAGCAAUAUUACGGUUG were -0.837 ± 0.069 and -0.0229 ± 0.093.

In the case of AUCGAGCAAUAUUACGCCUA, where the note is “37 °C”, the “self-splicing fitness (ln)” value is -2.39 ± 0.32. UAACAGCAAUAUUACGAGCA: the “self-splicing fitness (ln)” value runs as follows: (30 °C) -1.22 ± 0.1; (37 °C) -0.317 ± 0.1. With UGGUAGCAAUAUUACGACGU, the “self-splicing fitness (ln)” value (30 °C) is -0.945 ± 0.12 and the “self-splicing fitness (ln)” value (37 °C) was -0.0819 ± 0.16. For the sequence UCAAAGCAAUAUUACGAUGG, the “self-splicing fitness (ln)” value was -1.91 ± 0.1 (30 °C) and 0.127 ± 0.11 (37 °C). Turning to UGGCAGCAAUAUUACGAGAA, the “self-splicing fitness (ln)” value reads like this: (30 °C) -1.11 ± 0.32; (37 °C) -1.62 ± 0.31. Consider CCUCAGCAAUAUUACGUGAC, for which the “self-splicing fitness (ln)” value runs as follows: (30 °C) -3.76 ± 0.22; (37 °C) -2.66 ± 0.24. As for CAUGAGCAAUAUUACGUUCA, the “self-splicing fitness (ln)” value reads like this: (30 °C) -3.67 ± 0.26; (37 °C) -2.29 ± 0.17. Taken in the same sequence, the figures for ACAGAGCAAUAUUACGGUCU were -3.77 ± 0.18 and -2.48 ± 0.15.

CUUCAGCAAUAUUACGAGAG: the “self-splicing fitness (ln)” value by setting is: (30 °C) -2.81 ± 0.12; (37 °C) -1.79 ± 0.14. For CACAAGCAAUAUUACGUGAA, the “self-splicing fitness (ln)” value was -4.27 ± 0.25 (30 °C) and -2.39 ± 0.21 (37 °C). Taken in the same sequence, the figures for UUACAGCAAUAUUACGCCUC were -3.31 ± 0.38 and -2.03 ± 0.38.

Regarding UCGAAGCAAUAUUACGUCGU, the “self-splicing fitness (ln)” value by setting is: (30 °C) -2.65 ± 0.2; (37 °C) -1.34 ± 0.15. On the same counts, the results for GCACAGCAAUAUUACGGGCG are -1.4 ± 0.071 and 0.0832 ± 0.081. On the same counts, the results for GUCCAGCAAUAUUACGAGGU are -2.34 ± 0.11 and -1.34 ± 0.13. For AGUGAGCAAUAUUACGCCCG, the “self-splicing fitness (ln)” value (30 °C) was -2.27 ± 0.4.

Consider AUAGAGCAAUAUUACGUUCG, for which the “self-splicing fitness (ln)” value by setting is: (30 °C) -0.386 ± 0.077; (37 °C) -0.257 ± 0.092. Taken in the same sequence, the figures for CCUCAGCAAUAUUACGGCCA were -2.68 ± 0.33 and -2.62 ± 0.33. On the same counts, the results for UAGCAGCAAUAUUACGGUCG are 0.0447 ± 0.066 and 0.482 ± 0.094. Take CCCUAGCAAUAUUACGUCGC: the “self-splicing fitness (ln)” value is, setting by setting: (30 °C) -3.12 ± 0.21; (37 °C) -2.64 ± 0.25. As for CCUGAGCAAUAUUACGAUCG, the “self-splicing fitness (ln)” value is, setting by setting: (30 °C) -3.71 ± 0.27; (37 °C) -3.46 ± 0.3. For ACAGAGCAAUAUUACGGGAA, the “self-splicing fitness (ln)” value is -2.54 ± 0.19 (30 °C) and -2.98 ± 0.34 (37 °C).
